How the values were obtained:
[1] = target: T1, cMetSEMA-567His8 (human, UniProt P08581 25-567, limits assumed); experiment: TR-FRET; displacement of AlexaFluor-647-HGF from cMetSEMA-567His8
T1 construct: In the TR-FRET assay detected by anti-6xhis Europium3+; also called cMetSEMAHis; SEMA domain of c-Met; not shown: C-terminal His tag; the text says His9, the construct name says His8
Procedure: Therefore, the interaction of anti-c-Met antibodies with the SEMA domain of the c-Met receptor was studied using TR-FRET technology. […] The mean fluorescent intensity at 665 nm was measured on the EnVision 2101 Multilabel reader (PerkinElmer).
A 4-fold serial dilution of unlabeled anti-c-Met antibody ranging from 0.49-8000 ng/mL was tested. After overnight incubation at 4° C. in the dark, mean fluorescence intensity at 665 nm was measured using the EnVision 2101 Multilabel reader applying the following settings: Lance/Delfia dual mirror, emission filter 615-665 nm, excitation filter 320 nm, delay time 60 μs, window 100 μs, 100 flashes, 2000 μs per cycle and bidirectional row-by-row reading. To determine IC₅₀ values, the binding curves were analyzed with non-linear regression (sigmoidal dose-response with variable slope) using GraphPad Prism V4.03 software (GraphPad Software, San Diego, Calif., USA).

[2] = target: T2, cMetECDHis (human, UniProt P08581 25-932, limits assumed, biotinylated in the cross-block ELISA of Example 17); experiment: cross-block ELISA; competitor 058
T2 construct: Expressed in HEK-293F cells; also called soluble cMetECDHis; biotinylated cMetECDHis
Procedure: First, the optimal coating concentrations of the tested anti-c-Met antibodies and the optimal cMetECDHis concentration were determined. Therefore, ELISA wells were coated overnight at 4° C. with anti-c-Met HuMabs serially diluted in PBS (8 μg/mL in 2-fold dilutions). Next, the ELISA wells were washed with PBST (PBS supplemented with 0.05% Tween-20 [Sigma-Aldrich, Zwijndrecht, The Netherlands]) and blocked for one hour at room temperature (RT) with PBSTC (PBST supplemented 2% [v/v] chicken serum [Gibco, Paisley, Scotland]). Subsequently, the ELISA wells were washed with PBST and incubated for one hour at RT with biotinylated cMetECDHis serially diluted in PBSTC (1 μg/mL in 2-fold dilutions). Unbound biotinylated cMetECDHis was washed away with PBST, and bound biotinylated cMetECDHis was incubated for one hour at RT with 0.1 μg/mL Streptavidin-poly-HRP (Sanquin, Amsterdam, The Netherlands) diluted in PBST.
ELISA wells were coated with anti-c-Met antibody at a sub-optimal dose as described above. After blocking of the ELISA wells, they were incubated with the predetermined concentration of biotinylated cMetECDHis in the presence of an excess of anti-c-Met antibody. The reaction was developed as described above. Residual binding was expressed as a percentage relative to the binding observed in the absence of competitor antibody.

[3] = target: T3, recombinant human c-Met extracellular domain (R&D systems) (human, UniProt P08581 25-932); experiment: competition ELISA on coated recombinant c-Met extracellular domain; blocked ligand Europium-conjugated HGF; column headed EC50 on the sheet, called IC50 in paragraph 270; upper panel
T3 construct: extracellular domain; Bought reagent; also called coated extracellular domain of c-Met; recombinant c-Met
Procedure: (§1) ELISA wells were coated overnight at 4° C. with 0.5 μg/mL recombinant human c-Met extracellular domain (R&D systems, Minneapolis, USA) diluted in PBS. Next, the ELISA wells were washed with PBST (PBS supplemented with 0.05% Tween-20 [Sigma-Aldrich, Zwijndrecht, The Netherlands]) and blocked for one hour at room temperature (RT) with PBST supplemented with 2% (v/v) chicken serum (Gibco, Paisley, Scotland). […] Mean fluorescence intensity at 615 nm was measured using the EnVision 2101 Multilabel reader (PerkinElmer) applying the following settings: Lance/Delfia dual mirror, emission filter 615, excitation filter 340 nm, delay time 400 μs, window 400 μs, 100 flashes, 2000 μs per cycle and bidirectional row-by-row reading. To determine IC₅₀ values, the binding curves were analyzed with non-linear regression (sigmoidal dose-response with variable slope, top-values constrained to a shared value for all data-sets) using GraphPad Prism V4.03 software (GraphPad Software, San Diego, Calif., USA).
(§2) FIG. 5 depicts representative examples of HGF binding inhibition curves of anti-c-Met antibodies for binding to the extracellular domain of recombinant human c-Met. 5D5 was used as positive control antibody. All anti-c-Met antibodies in the experiment shown were able to compete with Europium^{3±}-conjugated HGF for binding to recombinant c-Met. […] Without adding Europium³⁺-conjugated HGF, roughly ˜600 relative fluorescent units (RFU) were detected, indicating the signal when maximal inhibition is accomplished. When binding of Europium³⁺-conjugated HGF was not inhibited, approximately ˜66,000 RFU were detected.

[4] = target: T3, recombinant human c-Met extracellular …; experiment: competition ELISA, residual Europium-HGF signal at 615 nm at the lower plateau of the fit; sheet prints no competing mAb ~66000, no HGF-Europium ~600; upper panel
Procedure: as §1, §2

[5] = target: T3, recombinant human c-Met extracellular …; experiment: competition ELISA on coated recombinant c-Met extracellular domain; blocked ligand Europium-conjugated HGF; column headed EC50 on the sheet, called IC50 in paragraph 270; lower panel
Procedure: as §1, §2

% inhibition [1] [%] | IC50 [1] [µg/mL] | residual binding, % of no competitor [2] [%] | IC50 [3] [µg/mL] | Bottom [4] [RFU] | IC50 [5] [µg/mL] | Binder
77 | 0.37 | 5.8 | 0.00927 | 18200 |  | IgG1-1016-022 (antibody, V domains shown, also called TH1016-022; PC1016-022) VH: QVQLVESGGGVVQPGRSLRLSCAASGFTFSSYAMHWVRQAPGKGLEWVAVISYDGSNKYYADSVKGRFTISRDNSKNTLYLQMNSLRAEDTAVYYCARELLWFGELWGYFDLWGRGTLVTVSS VL: DIQMTQSPSSVSASVGDRVTITCRASQGISSWLAWYQHKPGKAPKLLIYAASSLQSGVPSRFSGSGSGTDFTLTISSLQPEDFATYYCQEASSFTWTFGQGTKVEIK
98 | 0.55 | 98.6 |  |  | 0.0135 | anti-c-Met HuMab 098 (IgG1) (antibody, V domains shown, also called TH1016-098; PC1016-098) VH: QVQLVQSGAEVKKPGASVKVSCKASGYTFTNFGISWVRQAPGQGLEWMGWISAFNGHTDYSQKVQGRVTMTTDTSTSTAYMELRSLRSDDTAVFYCARSHYYGSGSPFDYWGQGTLVTVSS VL: DIQMTQSPSSLSASVGDRVTITCRASQGISNWLAWYQQKPEKAPKSLIYAASSLQSGVPSRFSGSGSGTDFTLTISSLQPEDFATYYCHQYKSYPWTFGQGTKVEIK
 |  | 18.5 | 0.0348 | 23300 |  | anti-c-Met HuMab 035 (IgG1) (antibody, V domains shown, also called P1016-035; TH1016-035-D09) VH: EVQLVQSGAEVKKPGESLKISCKGSGYSFTSYWIGWVRQMPGKGLEWMGIIYPGDSDTRYSPSFQGQVTISADKSISTAYLQWNSLKASDTAMYYCARQEITGEFDYWGQGTLVTVSS VL: AIQLTQSPSSLSASVGDRVTITCRASQGISSALAWYQQKPGKAPKLLIYDASSLESGVPSRFSGSGSGTDFTLTISSLQPEDFATYYCQQFNSYPMYTFGQGTKLEIK
95 | 0.39 | 103 | 0.0168 | 13100 |  | IgG1-024 (antibody, V domains shown, also called TH1016-024; PC1016-024) VH: EVQLLESGGGLVQPGGSLRLSCVASGFTFSSYAMSWVRQAPGKGLEWVSAISGSSGGSTYYVDSVKGRFTISRANSKNTLYLQMNSLRAEDTAVYYCAKDLDRGWMGYFGYWGQGTLVTVSS VL: DIQMTQSPSSVSASVGDRVTITCRASQGISSWLAWYQHKPGKAPKLLIYAASSLQSGVPSRFSGSGSGTDFTLTISSLQPEDFATYYCQQANSFPTFGQGTRLEIK
99 | 0.15 | 4 | 0.00727 | 5200 |  | IgG1-1016-058 (antibody, V domains shown, also called IgG1-058; TH1016-058) VH: EVQLVESGGGLVKPGGSLKLSCAASGFTFSDYYMYWVRQTPEKRLEWVATISDDGSYTYYPDSVKGRFTISRDNAKNNLYLQMSSLKSEDTAMYYCAREGLYYYGSGSYYNQDYWGQGTLVTVSS VL: AIQLTQSPSSLSASVGDRVTITCRASQGLSSALAWYRQKPGKAPKLLIYDASSLESGVPSRFSGSGSGTDFTLTISSLQPEDFATYYCQQFTSYPQITFGQGTRLEIK

More lines, now with the values behind:

Binder | % inhibition [1] [%] | IC50 [1] [µg/mL] | residual binding, % of no competitor [2] [%] | IC50 [3] [µg/mL] | Bottom [4] [RFU] | IC50 [5] [µg/mL]
anti-c-Met HuMab 005 (IgG1) (antibody, V domains shown, also called TH1016-005; PC1016-005) VH: QVQLVQSGAEVKKPGSSVKVSCKASGGTFSSYGFGWVRQAPGQGLEWMGRISPILGIANYAQMFQGRVTITADKSTSTAYMELSSLRSEDTAVYYCARDVGYDWPDTFDIWGQGTMVIVSS VL: DIQMTQSPSSLSASVGDRVTITCRASQGISSWLAWYQQKPEKAPKSLIYAASSLQSGVPSRFSGGGSGTDFTLTISSLQPEDFATYYCQQYNSFPPTFGQGTKVEIK | 92 | 0.16 | 3.6 | 0.0362 | 6940 | 
anti-c-Met HuMab 006 (IgG1) (antibody, V domains shown, also called TH1016-006; PC1016-006) VH: QVQLVQSGAEVKKPGSSVKVSCKASGGTFSSFGIGWVRQAPGQGLEWMGRIFPILGTANYAQMFQGRVTITADKSTSTAYMELTSLRSEDTAVYYCARDVGYDSADAFDIWGQGTMVTVSS VL: DIQMTQSPSSLSASVGDRVTITCRASQGISSWLAWYQQKPEKAPKSLIYAASSLQSGVPSRFSGSGSGTDFTLTISSLQPEDFATYYCQQYNSYPPTFGQGTKVEIK | 92 | 0.16 | 3.6 | 0.0799 | 5630 | 
IgG1-1016-069 (antibody, V domains shown, also called clone 069; TH1016-069) VH: QVQLVQSGAEVKKPGASVKVSCETSGYTFTSYGISWVRQAPGHGLEWMGWISAYNGYTNYAQKLQGRVTMTTDTSTSTAYMELRSLRSDDTAVYYCARDLRGTNYFDYWGQGTLVTVSS VL: DIQMTQSPSSVSASVGDRVTITCRASQGISNWLAWFQHKPGKAPKLLIYAASSLLSGVPSRFSGSGSGTDFTLTISSLQPEDFATYYCQQANSFPITFGQGTRLEIK | 97 | 0.54 | 101 |  |  | 0.0267
anti-c-Met HuMab 181 (IgG1) (antibody, V domains shown, also called TH1016-181; PC1016-181) VH: QVQLVQSGAEVKKPGASVKVSCKASGYTFTSYGISWVRQAPGQGLEWMGWISTYNGYTNYAQKLQGRVTMTTDTSTSTAYMELRSLRSDDTAVYYCARDLRGTAYFDYWGQGTLVTVSS VL: DIQMTQSPSSVSASVGDRVTITCRASQGISNWLAWYQHKPGKAPKLLIYAASSLLSGVPSRFSGSGSGTDFTLTISSLQPEDFATYYCQQANSFPITFGQGTRLEIK | 93 | 0.34 | 98.9 |  |  | 0.0103
anti-c-Met HuMab 008 (IgG1) (antibody, V domains shown, also called TH1016-008; PC1016-008) VH: EVQLVQSGAEVKKPGESLKISCKGSGYSFTSYWIGWVRQMPGKGLEWMGIIYPGDSETRYSPSFQGQVTISADKSISTAYLQWSSLKASDTAMYYCARQEITGEFDYWGQGTLVTVSS VL: AIQLTQSPSSLSASVGDRVTITCRASQGISSALAWYQQKPGKAPKLLIYDASSLESGVPSRFSGSGSGTDFTLTISSLQPEDFATYYCQQFNSYPRTFGQGTKVEIK |  |  | 40.8 | 0.00788 | 30100 | 
anti-c-Met HuMab 045 (IgG1) (antibody, V domains shown, also called TH1016-045; PC1016-045) VH: EVQLLESGGGLVQPGGSLRLSCAASGFTFSSYAMSWVRQAPGKGLEWVSVISGSGGITYYADSVKGRFTISRDNSKNTLYLQMNSLRAEDTAVYYCARDRGWGSDYWGQGTLVTVSS VL: EIVLTQSPATLSLSPGERATLSCRASQSVSSYLAWYQQKPGQAPRLLIYDASNRATGIPARFSGSGSGTDFTLTISSLEPEDFAVYYCQQRSNWPFTFGPGTKVDIK | 92 | 0.17 | 115 | 0.0165 | 12600 | 

From patent US20150329642A1 (Genmab, published 2015)
